{
  "source": "patent US20240092924A1",
  "molecular_target": "wild-type human sodium taurocholate cotransporting polypeptide (human NTCP) (human) (UniProt Q14973)",
  "sequence (Q14973 whole entry)": "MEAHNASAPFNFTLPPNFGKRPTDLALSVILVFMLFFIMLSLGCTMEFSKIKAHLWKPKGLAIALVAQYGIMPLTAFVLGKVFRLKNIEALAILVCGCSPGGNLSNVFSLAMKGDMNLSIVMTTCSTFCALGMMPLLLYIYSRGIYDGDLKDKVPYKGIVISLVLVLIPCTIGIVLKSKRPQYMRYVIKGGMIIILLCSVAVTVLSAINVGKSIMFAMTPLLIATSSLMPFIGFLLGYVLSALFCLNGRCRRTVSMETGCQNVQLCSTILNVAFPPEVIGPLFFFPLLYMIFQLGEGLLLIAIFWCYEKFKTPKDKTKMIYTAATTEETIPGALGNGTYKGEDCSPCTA",
  "test": "cell-based or functional assay",
  "data": [
    {"substance": "preS1 peptide", "values": [
      {"measurement": "[3H]-taurocholic acid uptake by HepG2-human NTCP cells, at 1000 nM (fraction of uptake remaining)", "result": 0.05},
      {"measurement": "inhibition of [3H]-taurocholic acid uptake by human NTCP-expressing HepG2, at 100 nM", "result": 60, "unit": "%"},
      {"measurement": "inhibition of [3H]-taurocholic acid uptake by human NTCP-expressing HepG2, at 1000 nM", "result": 96, "unit": "%"},
      {"measurement": "suppression of bile acid uptake into a hepatocyte cell line, at 1000 nM (FIG. 3 legend)", "result": "< 90", "unit": "%"}
    ]}
  ]
}
